Reference: paper PMC7314397 (Protein Science : A Publication of the Protein Society, 2020)

Legend:
Assay in all cases: ITC
[1] = target: Strongylocentrotus purpuratus NCBD (nuclear coactivator binding domain of CREBBP/p300) (Strongylocentrotus purpuratus (purple sea urchin))
[2] = target: Petromyzon marinus NCBD (nuclear coactivator binding domain of CREBBP/p300) (Petromyzon marinus (sea lamprey))
[3] = target: Homo sapiens NCBD (nuclear coactivator binding domain) from CREBBP (Homo sapiens (human)) (UniProt Q92793)
[4] = target: T1, Homo sapiens NCBD (nuclear coactivator binding domain) from CREBBP (Homo sapiens (human), UniProt Q92793 2061-2109)
T1 chain: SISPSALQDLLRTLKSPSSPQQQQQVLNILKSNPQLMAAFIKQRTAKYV

Homo sapiens CID (CREBBP-binding domain) from NCOA3 (ACTR) (from UniProt Q9Y6Q9 1045-1086) (domain or fragment)
Kd [1]: 13 µM

Petromyzon marinus CID, from the first of the two NCOA proteins (domain or fragment)
Kd [2]: 200 nM

Petromyzon marinus CID, from the second of the two NCOA proteins (domain or fragment)
Kd [2]: 200 nM

Strongylocentrotus purpuratus CID (CREBBP-binding domain of NCOA) (domain or fragment)
Kd [3]: 4.8 µM | Kd [1]: 7 to 22 µM | stoichiometry N [1]: 1.7

EGQSDERALLDQLHTLLSNTDATGLEEIDRALGIPELVNQGQ (domain or fragment, Homo sapiens (human)) [Homo sapiens CID (CREBBP-binding domain) from NCOA3 (ACTR)]
Kd [4]: 400 nM
